Reference: PMC11490872, “Drug-resistant menin variants retain high binding affinity and interactions with MLL1” (The Journal of Biological Chemistry, 2024)
Positions count from the first letter of the chain named. Read-outs that look alike come from different tables or passages of the source. Each block holds one molecule with its values, some of them ahead of it.

Columns and labels:
menin M327I = test system: menin M327I; set-up: method as in PMID 36922589; conditions: versus wild-type menin; cited from earlier work
[1] = target: T1, menin^G331D-FLSN-MLL1^4-43 (Homo sapiens, UniProt O00255, G326D); assay: FP competition, displacement of FLSN-MLL1^4-43 from menin^G331D; type: binding
T1 construct: The gene encoding full-length human menin was cloned into a pET32a expression vector; thioredoxin-His6 (cleaved yes); made in house; host or cells: E. coli BL21(DE3); probe peptide from GenScript
T1 sequence (O00255 1-610 G326D): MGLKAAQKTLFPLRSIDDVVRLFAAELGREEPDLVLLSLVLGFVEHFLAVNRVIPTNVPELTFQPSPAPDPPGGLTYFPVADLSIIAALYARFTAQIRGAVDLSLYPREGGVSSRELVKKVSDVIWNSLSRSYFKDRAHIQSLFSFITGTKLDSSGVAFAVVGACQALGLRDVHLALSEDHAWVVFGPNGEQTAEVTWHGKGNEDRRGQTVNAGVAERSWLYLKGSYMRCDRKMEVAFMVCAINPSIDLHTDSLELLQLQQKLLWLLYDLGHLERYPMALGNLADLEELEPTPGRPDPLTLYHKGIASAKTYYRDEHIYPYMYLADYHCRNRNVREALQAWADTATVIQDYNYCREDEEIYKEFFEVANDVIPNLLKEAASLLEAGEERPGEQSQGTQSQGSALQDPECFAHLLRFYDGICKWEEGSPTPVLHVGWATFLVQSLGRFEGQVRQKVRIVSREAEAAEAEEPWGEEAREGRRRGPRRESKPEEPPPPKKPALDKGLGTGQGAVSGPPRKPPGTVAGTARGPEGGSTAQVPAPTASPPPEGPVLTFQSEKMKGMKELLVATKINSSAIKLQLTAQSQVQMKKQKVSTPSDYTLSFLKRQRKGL
Procedure: To better understand the mechanism of MLL1 binding with menin mutants, we performed FP competition experiments using FLSN-MLL1^4-43 as a fluorescent probe for competitive displacement by MLL1 peptides ([25]). First, we tested competition with MLL1^160 and found very similar IC50 values for wild-type menin and the three mutants M327I, T349M, and G331R, ranging between 4.1 and 8 nM (Fig. 3, A and B). […] We have hypothesized that the lack of competition with MLL1 for the menin^G331D mutant might result from a much slower dissociation rate of the menin^G331D–MLL1 complex, and to evaluate this we performed time-dependent competition experiments with MLL1^160 and MLL1^46. Standard conditions in the FP assay include 3 h incubations of the menin-FLSN-MLL1^4-43 complex with competitors.
(§1) FP competition experiments used FLSN-MLL1^4-43 at 4 nM and menin at 4 nM against varying concentrations of unlabeled MLL1 peptides in FP buffer for IC50 determination. Protein-peptide complexes were incubated for 1 h before unlabeled peptide competitors were added to ensure complete binding. Unlabeled peptide competitors were incubated with the protein-peptide complexes for 3 h before measurement using the PHERAstar microplate reader ([25]). Experiments with Revumenib were run with the same steps and conditions but used 5% DMSO in the final solution. Kd and IC50 values were calculated using GraphPad Prism 10 by plotting mP values measured for each protein/MLL1 peptide or Revumenib as a function of protein/MLL1 peptide (or Revumenib) concentration ([25]). All FP binding and competition experiments were run in triplicate.

menin T349M = test system: menin T349M; set-up: method as in PMID 36922589; conditions: versus wild-type menin; cited from earlier work
[2] = target: T2, menin^G331R bound to FLSN-MLL1^4-43 (Homo sapiens, UniProt O00255, G326R); assay: FP competition, displacement of FLSN-MLL1^4-43 from menin^G331R; type: binding
T2 construct: The gene encoding full-length human menin was cloned into a pET32a expression vector; thioredoxin-His6 (cleaved yes); made in house; host or cells: E. coli BL21(DE3); probe peptide from GenScript
T2 sequence (O00255 1-610 G326R): T1 sequence (O00255 1-610 G326D) with D326R
Procedure: as §1

[3] = FP competition with MLL1 fragments, 3 h incubation, N = 3, Fig. 3B, read-out: G331D IC50
[4] = time-dependent competition, 3 h, Fig. 3D, read-out: 3h IC50
[5] = time-dependent competition, 24 h, Fig. 3D, read-out: 24h IC50
[6] = time-dependent competition, 48 h, Fig. 3D, read-out: 48h IC50
[7] = time-dependent competition, 72 h, Fig. 3D, read-out: 72h IC50
[8] = FP competition with MLL1 fragments, 3 h incubation, N = 3, Fig. 3B, read-out: G331R IC50

- activity for the G331D variant ([1]; FP competition, 5% DMSO): no activity
- IC50 ([2]; FP competition, 5% DMSO, 3 h, N = 3, Fig. 4A, read-out: IC50 (nM), menin variant G331R): 30 ± 2.5 nM
- reduction of activity against G331R ([2]; versus wild-type IC50): 5 fold
Molecule: CCN(C(=O)c1cc(F)ccc1Oc1cncnc1N1CC2(CCN(C[C@H]3CC[C@H](NS(=O)(=O)CC)CC3)CC2)C1)C(C)C [Revumenib, reference compound]
- reduction of binding by M327I mutation (menin M327I): 51 fold
- reduction of binding by T349M mutation (menin T349M): 111 fold

- IC50 [1, 3]: > 200 nM
- IC50 [1, 4]: > 200 nM
- IC50 [1, 5]: 0.87 ± 0.8 nM
- IC50 [1, 6]: 1.1 ± 0.6 nM
- IC50 [1, 7]: 1 ± 0.2 nM
- IC50 [2, 8]: 3.1 ± 0.7 nM
Molecule: MLL1^46: recombinant MLL1 fragment spanning amino acids 1–46, containing MBM1 and MBM2 (MAHSARWRFPARPGTTGGGGGGGRRGLGGAPRQRVPALLLPPGPPV; The printed 'Cys2' is Cys5 in the entry (peptide S4-A5-R6); Trx-His6 tag cl)

- IC50 ([1]; 24 to 72 h incubations, read-out: IC50 values, range over time points): 4.7 to 10.9 nM
- IC50 [1, 3]: > 200 nM
- IC50 [1, 4]: > 200 nM
- IC50 [1, 5]: 4.73 ± 0.8 nM
- IC50 [1, 6]: 10.9 ± 6.2 nM
- IC50 [1, 7]: 7.9 ± 0.5 nM
- IC50 [2, 8]: 8 ± 0.5 nM
B1: MLL1^160: N-terminal 160 amino acids of human MLL1, Cys2 mutated to alanine, recombinant (protein)
chain: MAHSARWRFPARPGTTGGGGGGGRRGLGGAPRQRVPALLLPPGPPVGGGGPGAPPSPPAVAAAAAAAGSSGAGVPGGAAAASAASSSSASSSSSSSSSASSGPALLRVGPGFDAALQVSAAIGTNLRRFRAVFGESGGGGGSGEDEQFLGFGSDEEVRVR
modifications: The printed 'Cys2' is the single N-terminal cysteine, Cys5 in the entry (peptide S4-A5-R6); Trx-His6 tag cleaved
